Data published in the supplement of paper PMC9170038.

Tested on: MS2 coat protein
Assay: apparent KD of MS2 coat protein; higher = weaker reporter binding
Conditions: Eterna round: R107
Summary of the method: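 Apparent KD was obtained for each design as the median of normalised binding-curve fits over its clusters. RNA switches transcribed on-chip from Illumina sequencing clusters were titrated with SNAP-549-labelled MS2 coat protein (twofold steps, 0.7 or 1.5 nM to 3 µM) in 100 mM Tris-HCl pH 7.5, 80 mM KCl, 4 mM MgCl2, without or with constant ligand.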

[1] = input ligand: theophylline 20 uM
[2] = input ligand: tryptophan 2.4 mM
[3] = input ligand: theophylline 2 mM

Sequence: UCCUCCUCCGCAAGGAGGAGGAGUUGCGAUACCAGCACGGCAACGUGCCCUUGGCAGCGCACAUGAGGAUCACCCAUGUCAUGUU [#1 Exclusion - Theophylline A Attempt #10 (HarryS)]
- apparent KD of MS2 coat protein (input ligand: arginine 13.2 mM): 15.5 nM
- apparent KD of MS2 coat protein [1]: 29.5 nM
- apparent KD of MS2 coat protein [2]: 18.8 nM

Sequence: UCGCAUUGCUCAGAUACCAGACAUGAGGAUCACCCAUGUACCAAGGUAACCGAAAGGCAUGUCCCUUGGCAGCUGAGCAAUGCGU [MAT - Exclusion Theophlline B - Mod of Eli - D14]
- apparent KD of MS2 coat protein (input ligand: arginine 13.2 mM): 12.4 nM
- apparent KD of MS2 coat protein [1]: 21.1 nM
- apparent KD of MS2 coat protein [2]: 13.1 nM

Sequence: UCGCAUUGCUGCGAUACCAGACAUGAGGAUCACCCAUGUACCAAGGUACGAAAAUAACAUGUCCCUUGGCAGCGCAGCAAUGCGU [MAT - Exclusion Theophlline B - Mod of Eli - D5]
- apparent KD of MS2 coat protein (input ligand: arginine 13.2 mM): 11.9 nM
- apparent KD of MS2 coat protein [1]: 30.1 nM
- apparent KD of MS2 coat protein [2]: 13.9 nM

Sequence: UCGCCAUUGACGGCCGCCACUCAAUGGUCUUCUCUGAACAUAAUUAACAUGAGGAUCACCCAUGUGAGGACCGGGUCGGUUAGAC [theeternabot_exclusion_MS2_Trp_B_24]
- apparent KD of MS2 coat protein (input ligand: arginine 13.2 mM): 17.4 nM
- apparent KD of MS2 coat protein [1]: 23.5 nM
- apparent KD of MS2 coat protein [3]: 20.4 nM

Sequence: UCGCUCUGGGUGAAUUCCGGAGAUGUGGAAGGAGCGGACGAAAGUCCAGGUAGGUCGCCAUCGGACAUGAGGAUCACCCAUGUAC [Same State - Arginine A (Freestyle 22)]
- apparent KD of MS2 coat protein (input ligand: arginine 13.2 mM): 55.6 nM
- apparent KD of MS2 coat protein (input ligand: none): 122 nM
- apparent KD of MS2 coat protein [1]: 99.8 nM
- apparent KD of MS2 coat protein [3]: 100 nM
- apparent KD of MS2 coat protein [2]: 89.9 nM

Sequence: UCGCUCUGGGUGAGUUCCGGAGAUGUGGAAGGAGCGCUCGAAAGAGCAGGUAGGUCGCCAACGGACAUGAGGAUCACCCAUGUAC [Same State - Arginine A (Freestyle 21)]
- apparent KD of MS2 coat protein (input ligand: arginine 13.2 mM): 33.8 nM
- apparent KD of MS2 coat protein (input ligand: none): 39.1 nM
- apparent KD of MS2 coat protein [1]: 76.1 nM
- apparent KD of MS2 coat protein [3]: 34.4 nM
- apparent KD of MS2 coat protein [2]: 40.3 nM

Sequence: UCGGGCAGAGCGGCCGCCACUGUAAGGCGUGCGGAUGACGGAACAUGAGGAUCACCCAUGUUGUUUAGGACCGGGCUUGCGGCGA [nynullin]
- apparent KD of MS2 coat protein (input ligand: arginine 13.2 mM): 22.5 nM
- apparent KD of MS2 coat protein (input ligand: none): 15.8 nM
- apparent KD of MS2 coat protein [1]: 27.2 nM
- apparent KD of MS2 coat protein [3]: 11.2 nM
- apparent KD of MS2 coat protein [2]: 16.7 nM

Sequence: UCGGGCAGAGCGGCCGCCACUGUUUGGCAUGCGGAUGAAGGAACAUGAGGAUCACCCAUGUAGAUUAGGACCGGGCUGGCGGAGA [jjhemullin]
- apparent KD of MS2 coat protein (input ligand: arginine 13.2 mM): 17.3 nM
- apparent KD of MS2 coat protein (input ligand: none): 20.1 nM
- apparent KD of MS2 coat protein [1]: 19.2 nM
- apparent KD of MS2 coat protein [3]: 39.4 nM
- apparent KD of MS2 coat protein [2]: 36.5 nM

Sequence: UCGGGCAUAGCGGCCGCCACUGUUUGGCGUGCGGAUGACGGAACAUGAGGAUCACCCAUGUUGUUUAGGACCGGGCUUGCGUCGU [zyzmullin]
- apparent KD of MS2 coat protein (input ligand: arginine 13.2 mM): 14 nM
- apparent KD of MS2 coat protein [1]: 17.8 nM
- apparent KD of MS2 coat protein [3]: 14.5 nM

Sequence: UCGGUGCUCUACAUGAGGAUCACCCAUGUCCGAGGACCGGUACGGCCGCCACUCGCAAUCAAACAGACGUGGGCCAACUUUGCGU [Tiribeesqu]
- apparent KD of MS2 coat protein (input ligand: arginine 13.2 mM): 11 nM
- apparent KD of MS2 coat protein [1]: 12.1 nM
- apparent KD of MS2 coat protein [3]: 11 nM

Sequence: UCGUGUAUAUCGGAUACCAGUGAAAUCGAUACAUGAGGAUCACCCAUGUGAGAGGAUGUACACCCUUGGCAGCUGUAUAUAUCUA
- apparent KD of MS2 coat protein (input ligand: arginine 13.2 mM): 19.5 nM
- apparent KD of MS2 coat protein [1]: 28.5 nM
- apparent KD of MS2 coat protein [2]: 25.1 nM

Sequence: UCGUGUAUUUCGGAUACCAGUGAAAUCGAUACAUGAGGAUCACCCAUGUGAGAGGAUGUACACCCUUGGCAGCUGUCUGUAUCUG [cxezmullin]
- apparent KD of MS2 coat protein (input ligand: arginine 13.2 mM): 14.6 nM
- apparent KD of MS2 coat protein [1]: 20.2 nM
- apparent KD of MS2 coat protein [2]: 15.5 nM

Sequence: UCGUUUUAGUCGGCCGCCACUGUAUGCAUGUUUAACAUGAGGAUCACCCAUGUCCCGUUCUAUUUCAGGACCGGGACGUAAUCGA [JR_SSTryptoB_Sub008]
- apparent KD of MS2 coat protein (input ligand: arginine 13.2 mM): 106 nM
- apparent KD of MS2 coat protein [1]: 382 nM
- apparent KD of MS2 coat protein [3]: 619 nM

Sequence: UCUAACAUGAGGAUCACCCAUGUGGGUUAUCGAGGACCGGUACGGCCGCCACUCGACCAGUAUAACUGGCUAGAACGUAUUUGAU [theeternabot_sameState_MS2_Trp_A_34]
- apparent KD of MS2 coat protein (input ligand: arginine 13.2 mM): 31.1 nM
- apparent KD of MS2 coat protein [1]: 53.6 nM
- apparent KD of MS2 coat protein [3]: 49.4 nM

Sequence: UCUCAAGGCCGCUCGGUGCUCCCUGGUGAUACCAGCCAUAUAUCCGGCCCUUGGCAGCACAUGAGGAUCACCCAUGUAGCAGGCG [Sorimaat]
- apparent KD of MS2 coat protein (input ligand: arginine 13.2 mM): 18 nM
- apparent KD of MS2 coat protein (input ligand: none): 24 nM
- apparent KD of MS2 coat protein [1]: 41.6 nM
- apparent KD of MS2 coat protein [3]: 8.54 nM
- apparent KD of MS2 coat protein [2]: 28.1 nM

Sequence: UCUUGAGUUUCGGAUACCAGUGUUGUCGAUACAUGAGGAUCACCCAUGUUAGAGGAUGUACACCCUUGGCAGCCGGCUGUGGCGG [zszmullin]
- apparent KD of MS2 coat protein (input ligand: arginine 13.2 mM): 13.7 nM
- apparent KD of MS2 coat protein [1]: 21.9 nM
- apparent KD of MS2 coat protein [2]: 19 nM

Sequence: UCUUGAGUUUCGGAUACCAGUGUUGUCGAUACAUGAGGAUCACCCAUGUUAGAGGAUGUACACCCUUGGCAGCCGGGUGUGGCGG [tftmullin]
- apparent KD of MS2 coat protein (input ligand: arginine 13.2 mM): 12.2 nM
- apparent KD of MS2 coat protein (input ligand: none): 14.5 nM
- apparent KD of MS2 coat protein [1]: 14.7 nM
- apparent KD of MS2 coat protein [3]: 12.6 nM
- apparent KD of MS2 coat protein [2]: 15.5 nM

Sequence: UGACAUUGCUCAGAUACCAGACACGAGGAUCACCCGUGUGCCAACAAGUACAAAAUAAAUGUCCCUUGGCAGCUGAGCAAUGUCU [TheoBX 24 #MS2Left #AlternativeMS2 #Theo22]
- apparent KD of MS2 coat protein (input ligand: arginine 13.2 mM): 11.9 nM
- apparent KD of MS2 coat protein (input ligand: none): 12.2 nM
- apparent KD of MS2 coat protein [1]: 16 nM
- apparent KD of MS2 coat protein [3]: 26.1 nM
- apparent KD of MS2 coat protein [2]: 12.2 nM

Sequence: UGACAUUGCUCAGAUACCAGACAUGAGCAUCAGCCAUGUGCCAACAAGUACAAAAUAAAAGUCCCUUGGCAGCUGAGCAAUGUCU [TheoBX 21 #MS2Left #AlternativeMS2 #Theo2]
- apparent KD of MS2 coat protein (input ligand: arginine 13.2 mM): 11.3 nM
- apparent KD of MS2 coat protein (input ligand: none): 9.88 nM
- apparent KD of MS2 coat protein [1]: 11.3 nM
- apparent KD of MS2 coat protein [3]: 29.1 nM
- apparent KD of MS2 coat protein [2]: 10.6 nM

Sequence: UGACAUUGCUCAGAUACCAGACAUGAGCAUCAGCCAUGUGCCAACAAGUACAUAAUAAAUGUCCCUUGGCAGCUGAGCAAUGUCU [TheoBX 16 #MS2Left #Theo2 #AlternativeMS2]
- apparent KD of MS2 coat protein (input ligand: arginine 13.2 mM): 14.3 nM
- apparent KD of MS2 coat protein (input ligand: none): 13 nM
- apparent KD of MS2 coat protein [1]: 20.5 nM
- apparent KD of MS2 coat protein [3]: 149 nM
- apparent KD of MS2 coat protein [2]: 12.7 nM
